# Laboratory results taken from patent publication US20240091375A1, “AN ANTIBODY FRAGMENT BASED ANTIMICROBIAL CONJUGATE SELECTIVELY TARGETING PSEUDOMONAS” (priority 2020, published 2024).
# B1: Seq. ID 21: 187 amino acid conjugate: human Histatin 5, Elastase B cleavage sequence RGGGLA, Gly-Ser linker, VHH Seq. ID6 (conjugate)
# chain: MGDSHAKRHHGYKRKFHEKHHSHRGYDVRGGGLAGGGGSGGGGSGGGGSHMDVQLQESGGASVQPGGSLLISCEASGLASYSNYCIMWFRQPPGKEREGVAGINLRSGITYYAEAVRPRFTISADSVDGRFAISQDNARNTVYLQMNSLKPEDTAIYYCAAGNLCGGSWSGYRYWGQGTQVTVSSLE
# modifications: Antibody fragment based antimicrobial conjugate
# notes: ID6
# B2: Seq. ID 6: camelid heavy chain antibody variable region fragment (VHH) specific to Pseudomonas aeruginosa antigen C4 decarboxylase transporter (protein, listed as Camelus dromedarius)
# VHH: DVQLQESGGASVQPGGSLLISCEASGLASYSNYCIMWFRQPPGKEREGVAGINLRSGITYYAEAVRPRFTISADSVDGRFAISQDNARNTVYLQMNSLKPEDTAIYYCAAGNLCGGSWSGYRYWGQGTQVTVSS
# Columns and labels:
# P. aeruginosa [1] = assay: Kill kinetics by ATP measurement (bacterial live dead assay); format: cell-based, Pseudomonas aeruginosa; conditions: ATP at different time points, FIG. 7; Histatin 5 and Seq. ID 21 compared with each other
# Source text: FIG. 7 is a representative graph showing the kill kinetics of Seq. ID 21, Seq. ID 6, on P. aeruginosa with Histatin 5, positive control—Meropenem, and negative controls—media and culture.
# Kill kinetics was done by measuring the adenosine triphosphate (ATP) during different time points using the bacterial live dead assay. […] ID 21 was similar showing bactericidal activity was due to the released Histatin on contact with the Pseudomonas. A positive control used was antibacterial Meropenem drug to show the efficiency of killing. […] The VHH antibody Seq.
# Pseudomonas aeruginosa = assay: Microbiological agar-plate assay for bactericidal activity (MIC-99, MIC-50); format: cell-based; conditions: for MIC-50 (minimal inhibitory concentration for killing 50% microorganisms) / MIC-99 (minimal inhibitory concentration for killing 99% microorganisms): in vitro, agar-plate assay; for MIC-99 (minimal inhibitory concentration for killing 99% microorganisms): FIG. 5, Seq. ID6 value printed with 'anaerobic conditions'
# Method: FIG. 5 is representative microbiological agar-plate assay to determine MIC-99 of purified Seq. ID 21, and Seq. ID 6;
# Microbiology assays were done with the purified VHH with Seq. ID 6 and the antibody fragment based antimicrobial conjugate of Seq. ID 21 to see their bactericidal activity. As depicted in FIG. 5, the MIC-99 of the Seq. […] ID21 with a value less than 0.5 μM. The MIC-50 of Seq. ID 6 antibody fragment alone was less than 2.5 μM and that of Seq. ID 21 was less than 0.125 μM.
# [2] = tested on: whole cell Pseudomonas spp.; assay: Whole cell ELISA binding; conditions: FIG. 6a
# Source text: FIG. 6a is a representative graph depicting the binding affinity of Seq. ID21 and Seq. ID 6 to whole cell Pseudomonas spp. in an ELISA assay;
# Whole cell ELISA using Pseudomonas spp. were used to determine the binding properties of the conjugate with Seq. ID 21, and VHH Seq. ID 6. […] ID 21. Both the molecules Seq. ID 21 and Seq.
# P. aeruginosa [3] = assay: Turbidity test of P. aeruginosa culture; format: cell-based, Pseudomonas aeruginosa; conditions: treated versus untreated control, visual, FIG. 4b
# Method: FIG. 4b is a representative image of turbidity test of P. aeruginosa culture in the presence (Treated) and the absence (Control) of purified Seq. ID 21;
# FIG. 4b represents a turbidity test, wherein sample of the pathogen P. aeruginosa was either left untreated (Control) or was treated by addition of purified Seq. ID 21 (Treated) prodrug.
Molecule,Bactericidal activity in kill kinetics (P. aeruginosa [1]),Reduction of MIC-99 relative to Seq. ID6 antibody fragment alone (Pseudomonas aeruginosa; conjugate versus VHH alone) [fold],MIC-50 (minimal inhibitory concentration for killing 50% microorganisms) (Pseudomonas aeruginosa),MIC-99 (minimal inhibitory concentration for killing 99% microorganisms) (Pseudomonas aeruginosa),Binding ability to whole cell Pseudomonas spp. after conversion of the antibody to conjugate ([2]; ELISA),Biological activity [2],Turbidity of P. aeruginosa sample after treatment (P. aeruginosa [3])
Histatin 5 [reference compound],similar,–,–,–,–,–,–
B1,similar,20,less than 0.125 μM,less than 0.5 μM,no loss of binding ability,showed the desired biological activity,visually reduced
B2,–,–,less than 2.5 μM,10 µM,–,showed the desired biological activity,–
